B1: Activated CDC42 kinase 1 (Mus musculus), O54967 (parent)
chain: MQPEEGTGWLLELLSEVQLQQYFLRLRDDLNITRLSHFEYVKNEDLEKIGMGRPGQRRLWEAVKRRKAMCKRKSWMSKVFSGKRLEAEFPSQHSQSTFRKPSPTPGSLPGEGTLQSLTCLIGEKDLRLLEKLGDGSFGVVRRGEWDAPAGKTVSVAVKCLKPDVLSQPEAMDDFIREVNAMHSLDHRNLIRLYGVVLTLPMKMVTELAPLGSLLDRLRKHQGHFLLGTLSRYAVQVAEGMAYLESKRFIHRDLAARNLLLATRDLVKIGDFGLMRALPQNDDHYVMQEHRKVPFAWCAPESLKTRTFSHASDTWMFGVTLWEMFTYGQEPWIGLNGSQILHKIDKEGERLPRPEDCPQDIYNVMVQCWAHKPEDRPTFVALRDFLLEAQPTDMRALQDFEEPDKLHIQMNDVITVIEGRAENYWWRGQNTRTLCVGPFPRNVVTSVAGLSAQDISQPLQNSFIHTGHGDSDPRHCWGFPDRIDELYLGNPMDPPDLLSVELSTSRPTQHLGRVKREPPPRPPQPAIFTQKTTYDPVSEDPDPLSSDFKRLGLRKPALPRGLWLAKPSARVPGTKADRSSGGEVTLIDFGEEPVVPTPRPCAPSLAQLAMDACSLLDKTPPQSPTRALPRPLHPTPVVDWDARPLPPPPAYDDVAQDEDDFEVCSINSTLVGAGLPAGPSQGETNYAFVPEQAQMPPALEDNLFLPPQGGGKPPSSVQTAEIFQALQQECMRQLQVPTGQLTPSPTPGGDDKPQVPPRVPIPPRPTRPRVELSPAPSGEEETSRWPGPASPPRVPPREPLSPQGSRTPSPLVPPGSSPLPHRLSSSPGKTMPTTQSFASDPKYATPQVIQAPGPRAGPCILPIVRDGRKVSSTHYYLLPERPPYLERYQRFLREAQSPEEPAALPVPPLLPPPSTPAPAAPTATVRPMPQAAPDPKANFSTNNSNPGARPPSLRAAARLPQRGCPGDGQEAARPADKVQMLQAMVHGVTTEECQAALQSHSWSVQRAAQYLKVEQLFGLGLRPRVECHKVLEMFDWNLEQAGCHLLGSCGPAHHKR

Variants of: B1
Conditions: with NCK1, P16333-1

effect of a mutation on the interaction | Variant
disrupting interaction strength | K158A
